Changes are numbered by the printed parent chain. Blank lines part the entries; values can stand above or below the binder they belong to.
Assays:
[1] = target: T1, recombinant His-Strep tagged human Tyro3 extracellular domain (human, UniProt Q06418 41-429); assay: BLI (Octet K2), IgG on AHC tips, hTyro3 ECD analyte, 1:1 global fit; kon Error 1,34E+02
T1 construct: also called hTyro3 ECD; full Tyro3 ECD
T1 sequence: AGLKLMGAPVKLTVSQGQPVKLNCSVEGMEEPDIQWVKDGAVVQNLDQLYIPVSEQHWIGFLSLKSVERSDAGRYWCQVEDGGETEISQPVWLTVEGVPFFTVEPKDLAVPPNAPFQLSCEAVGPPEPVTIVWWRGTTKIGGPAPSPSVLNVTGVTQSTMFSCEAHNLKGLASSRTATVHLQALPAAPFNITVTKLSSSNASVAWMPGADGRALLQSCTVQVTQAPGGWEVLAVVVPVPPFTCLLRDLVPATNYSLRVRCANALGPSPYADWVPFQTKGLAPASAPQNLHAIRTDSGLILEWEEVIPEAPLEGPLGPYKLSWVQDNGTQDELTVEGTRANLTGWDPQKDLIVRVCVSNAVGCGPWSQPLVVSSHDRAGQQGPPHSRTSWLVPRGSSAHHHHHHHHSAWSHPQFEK
Description: (§1) Affinity determinations were performed using biolayer interferometry on an Octet K2 instrument (Pall/ForteBio) equipped with anti-Human Kinetics (AHC) disposable fiber-optic biosensor tips. All experiments were conducted at 30° C. in the recommended Fortebio running buffer (PBS with 0.1% (w/v) bovine serum albumin (BSA) and 0.02% (v/v) Tween_20). This buffer was also used for dilution of ligand (here the antibody) and of the analyte (here the extra cellular domain of human Tyro3 protein). Samples in a 96-well microplates (No. Black polypropylene low binding plates, Greiner Bio-One, Frickenhausen, Germany) were agitated at 1000 rpm. […] Between measurements, the anti-human Tyro3 biosensor surfaces were regenerated by exposing them to 3 cycles of 5 sec in 10 mM glycine, pH 1.5, followed by 5 sec in PBS. Association phase was measured for 300 seconds, dissociation phase depending on the interaction for 300 seconds depending on dissociation step. […] Affinity, association (kon) and dissociation rate constants (koff) for each antibody were calculated applying a 1:1 interaction model fitting global, Rmax linked by sensor) on the ForteBio data analysis software 9.0.

[2] = target: T1, recombinant His-Strep tagged human …; assay: BLI (Octet K2), IgG on AHC tips, hTyro3 ECD analyte, 1:1 global fit; KD Error 5,96E-10
Description: as §1

[3] = target: T1, recombinant His-Strep tagged human …; assay: BLI (Octet K2), 1:1 global fit; analyte concentration of this kobs not given
Description: Affinity determinations were performed using biolayer interferometry on an Octet K2 instrument (Pall/ForteBio) equipped with anti-Human Kinetics (AHC) disposable fiber-optic biosensor tips. All experiments were conducted at 30° C. in the recommended Fortebio running buffer (PBS with 0.1% (w/v) bovine serum albumin (BSA) and 0.02% (v/v) Tween_20). This buffer was also used for dilution of ligand (here the antibody) and of the analyte (here the extra cellular domain of human Tyro3 protein). Samples in a 96-well microplates (No. Black polypropylene low binding plates, Greiner Bio-One, Frickenhausen, Germany) were agitated at 1000 rpm. […] Between measurements, the anti-human Tyro3 biosensor surfaces were regenerated by exposing them to 3 cycles of 5 sec in 10 mM glycine, pH 1.5, followed by 5 sec in PBS. Association phase was measured for 300 seconds, dissociation phase depending on the interaction for 300 seconds depending on dissociation step. All measurements were corrected for baseline drift using the double reference substraction, that is to say by subtracting a control sensor without ligand exposed to each concentration of the extra cellular domain of human Tyro3 protein and a reference well with ligand submitted to running buffer only. Affinity, association (kon) and dissociation rate constants (koff) for each antibody were calculated applying a 1:1 interaction model fitting global, Rmax linked by sensor) on the ForteBio data analysis software 9.0.

[4] = target: T1, recombinant His-Strep tagged human …; assay: sandwich ELISA, Strep-tagged hTyro3 ECD captured on StrepMAB plate, IgG 3-fold from 3 µg/mL, anti-human IgG1-HRP
Description: (§2) A double sandwich ELISA was developed. This assay consisted in measuring the binding of the anti-Tyro3 antibodies to be tested on immobilized strep-tagged entire human Tyro3 ECD captured directly on ELISA plate pre-coated with an anti-strep mAb (StrepMAB-Immo coated microplates from IBA biotech). Briefly, the 96 wells of StrepMAB-Immo coated microplate were washed three times with 300 μL of the PBS Tween 0.2% (referred as ELISA washing solution). The capture of an excess of purified strep tagged hTyro3 ECD protein was achieved by a one hour incubation at room temperature. In these experiments, 3 μg of purified protein diluted in PBS, BSA 1% (referred as ELISA diluent solution) were immobilized per well. The wells were washed three times with 300 μL of the washing solution. The non-specific binding sites on the well surface were blocked during 60 min at room temperature with 200 μL/well of blocking solution (PBS, BSA 3%). The wells were washed five times with 300 μL of the washing solution. Then, 100 μl (in duplicates) of the different concentrations of anti-Tyro3 antibodies to be tested diluted in ELISA diluent solution, were added per well and allowed to incubate during 1 hour at room temperature. An Irrelevant control IgG2656 was also added in this experiment. For anti-Tyro3 antibodies in the ScFv format, experiments were performed with 6 concentrations in duplicates (FIG. 3A). For anti-Tyro3 antibodies in the IgG format, experiments were performed with 9 concentrations in duplicates (FIG. 3B). […] For IgGs experiments, starting concentration for first dilution was 3 μg/ml and then dilutions of 3 fold in the ELISA diluent solution were performed. The wells were washed five times with 300 μL of the washing solution. […] The mix was allowed to incubated 60 min at room temperature.

[5] = target: T2, cynomolgus Tyro3 ECD, His-Strep tagged; assay: sandwich ELISA, Strep-tagged cynomolgus Tyro3 ECD captured on StrepMAB plate, IgG 3-fold from 3 µg/mL, anti-human IgG1-HRP
T2 construct: also called cyno TYRO3 ECD 8hisstrep
T2 extracellular domain: T1 sequence with V67A, I191V, A309G, R376H
Description: [The procedure below names another species; the source lists this species under the same test.] as §2

[6] = target: T1, recombinant His-Strep tagged human …; assay: BLI (Octet K2), IgG on AHC tips, hTyro3 ECD analyte, 1:1 global fit; kdis(1/s); kdis Error 1,42E-05
Description: as §1

[7] = target: T1, recombinant His-Strep tagged human …; assay: BLI (Octet K2), IgG on AHC tips, hTyro3 ECD analyte, 1:1 global fit; kdis(1/s); kdis Error 1,71E-04
Description: as §1

[8] = target: T1, recombinant His-Strep tagged human …; assay: BLI (Octet K2), IgG on AHC tips, hTyro3 ECD analyte, 1:1 global fit; KD Error 6,89E-09
Description: as §1

[9] = target: T1, recombinant His-Strep tagged human …; assay: BLI (Octet K2), IgG on AHC tips, hTyro3 ECD analyte, 1:1 global fit; kon Error 8,90E+02
Description: as §1

[10] = target: T1, recombinant His-Strep tagged human …; assay: BLI (Octet K2), IgG on AHC tips, hTyro3 ECD analyte, 1:1 global fit; KD Error 4,35E-10
Description: as §1

[11] = target: T1, recombinant His-Strep tagged human …; assay: BLI (Octet K2), IgG on AHC tips, hTyro3 ECD analyte, 1:1 global fit; kdis(1/s); kdis Error 3,33E-05
Description: as §1

[12] = target: T1, recombinant His-Strep tagged human …; assay: BLI (Octet K2), IgG on AHC tips, hTyro3 ECD analyte, 1:1 global fit; kon Error 1,04E+03
Description: as §1

[13] = target: T1, recombinant His-Strep tagged human …; assay: BLI (Octet K2), IgG on AHC tips, hTyro3 ECD analyte, 1:1 global fit; KD Error 4,92E-09
Description: as §1

[14] = target: T1, recombinant His-Strep tagged human …; assay: BLI (Octet K2), IgG on AHC tips, hTyro3 ECD analyte, 1:1 global fit; kdis(1/s); kdis Error 1,02E-04
Description: as §1

[15] = target: T1, recombinant His-Strep tagged human …; assay: BLI (Octet K2), IgG on AHC tips, hTyro3 ECD analyte, 1:1 global fit; kon Error 3,95E+02
Description: as §1

[16] = target: T1, recombinant His-Strep tagged human …; assay: BLI (Octet K2), IgG on AHC tips, hTyro3 ECD analyte, 1:1 global fit; kdis(1/s); kdis Error 4,43E-05
Description: as §1

[17] = target: T1, recombinant His-Strep tagged human …; assay: BLI (Octet K2), IgG on AHC tips, hTyro3 ECD analyte, 1:1 global fit; kon Error 7,98E+02
Description: as §1

[18] = target: T1, recombinant His-Strep tagged human …; assay: BLI (Octet K2), IgG on AHC tips, hTyro3 ECD analyte, 1:1 global fit; KD Error 9,30E-10
Description: as §1

B1: IgG2710 (antibody, V domains shown)
VH: EVQLVQSGADVKKPGASLTISCQASGYTFTDYWISWVRQKPGKGLEWMGVINKYASWTRYGPSFQGHVTISADRSTATAYLQWRSLEASDTAMYYCVRSGGLTSGGTIPEYYQHWGPGTLVTVSS
VL: SYELTQPPSVSVSPGQTARITCSGDALPKKYAYWYQQKSGQAPVLVIYEDSKRPSGIPERFSGSSSGTMATLTISGAQVEDEADYYCYSQNPQGNYFVFGGGTKLTVL
notes: also called IGX2710
kon [1]: 29000 M⁻¹ s⁻¹
Kd [2]: 73.5 nM
kobs [3]: 0.00321 s⁻¹
EC50 (read off the curve) [4]: ~0.03 µg/mL
EC50 (read off the curve) [5]: ~0.01 µg/mL
koff [6]: 0.00213 s⁻¹

B2: IgG2414 (antibody, V domains shown)
VH: B1 VH with V50Q, K53R, Y54H, W57N, R59M, L102A
VL: B1 VL with S51W, P54A, N91E, P92R, Q93K
notes: also called IGX2414
koff [7]: 0.0144 s⁻¹
Kd [8]: 308 nM
kobs [3]: 0.0203 s⁻¹
kon [9]: 46900 M⁻¹ s⁻¹
binding result [5]: binds

The remaining lines, values ahead:

Kd [10]: 39.3 nM
koff [11]: 0.00478 s⁻¹
kobs [3]: 0.00934 s⁻¹
EC50 (read off the curve) [4]: ~0.03 µg/mL
binding result [5]: binds
kon [12]: 122000 M⁻¹ s⁻¹
B3: IgG2713 (antibody, V domains shown)
VH: B1 VH with V50R, N52S, K53R, Y54H, A55G, W57Q, R59Y, S99A, L102Q
VL: B1 VL with S51H, P54A, Q90I, N91S, Q93A, F97G
notes: also called IGX2713

Kd [13]: 307 nM
kobs [3]: 0.014 s⁻¹
EC50 (read off the curve) [4]: ~0.01 µg/mL
koff [14]: 0.00992 s⁻¹
kon [15]: 32300 M⁻¹ s⁻¹
binding result [5]: binds
B4: IgG2711 (antibody, V domains shown)
VH: B1 VH with V50Q, N52R, K53G, Y54Q, A55H, W57S, R59L, S99H, G101A, L102S
VL: B1 VL with S51A, P54S, Q90L, N91S, P92D, Q93S
notes: also called IGX2711

koff [16]: 0.00539 s⁻¹
kobs [3]: 0.0102 s⁻¹
EC50 (read off the curve) [4]: ~0.02 µg/mL
kon [17]: 76800 M⁻¹ s⁻¹
Kd [18]: 70.2 nM
binding result [5]: binds
B5: IgG2415 (antibody, V domains shown)
VH: B1 VH with V50Q, N52R, K53G, Y54P, W57A, R59H, S99H, G100Q, G101Q, L102Q
VL: B1 VL with S51K, P54I, Q90T, N91S, P92T, Q93G, F97M
notes: also called IGX2415
